Laboratory results: patent US20220396627A1

Tests used:
[1] = biological target: Human Siglec-9-Fc (recombinant human Siglec-9 extracellular domain Q18-G348 fused to human IgG1 Fc) (human); assay: BLI binning, hSiglec-9-Fc on AHC sensor; competitor bound first (row): 2F15
[2] = biological target: Human Siglec-9-Fc (recombinant human Siglec-9 extracellular domain Q18-G348 fused to human IgG1 Fc) (human); assay: BLI binning, hSiglec-9-Fc on AHC sensor; competitor bound first (row): 9C15
[3] = biological target: Human Siglec-9-Fc (recombinant human Siglec-9 extracellular domain Q18-G348 fused to human IgG1 Fc) (human); assay: BLI binning, hSiglec-9-Fc on AHC sensor; competitor bound first (row): 9D21
[4] = biological target: Human Siglec-9-Fc (recombinant human Siglec-9 extracellular domain Q18-G348 fused to human IgG1 Fc) (human); assay: BLI binning, hSiglec-9-Fc on AHC sensor; competitor bound first (row): 12G23
[5] = biological target: Human Siglec-9-Fc (recombinant human Siglec-9 extracellular domain Q18-G348 fused to human IgG1 Fc) (human); assay: BLI binning, hSiglec-9-Fc on AHC sensor; competitor bound first (row): 12L19
[6] = biological target: Human Siglec-9-Fc (recombinant human Siglec-9 extracellular domain Q18-G348 fused to human IgG1 Fc) (human); assay: BLI binning, hSiglec-9-Fc on AHC sensor; competitor bound first (row): 12P18
[7] = biological target: Human Siglec-9-Fc (recombinant human Siglec-9 extracellular domain Q18-G348 fused to human IgG1 Fc) (human); assay: BLI binning, hSiglec-9-Fc on AHC sensor; competitor bound first (row): 13J19
[8] = biological target: Human Siglec-9-Fc (recombinant human Siglec-9 extracellular domain Q18-G348 fused to human IgG1 Fc) (human); assay: BLI binning, hSiglec-9-Fc on AHC sensor; competitor bound first (row): 13O18
[9] = biological target: Human Siglec-9-Fc (recombinant human Siglec-9 extracellular domain Q18-G348 fused to human IgG1 Fc) (human); assay: BLI binning, hSiglec-9-Fc on AHC sensor; competitor bound first (row): 3L02 (self)
[10] = biological target: Human Siglec-9-Fc (recombinant human Siglec-9 extracellular domain Q18-G348 fused to human IgG1 Fc) (human); assay: BLI binning, hSiglec-9-Fc on AHC sensor; competitor bound first (row): 13H10 (printed 13H110)

Chain of Human Siglec-9-Fc (recombinant human Siglec-9 extracellular domain Q18-G348 fused to human IgG1 Fc) (human) (chain, as listed by the source limits assumed): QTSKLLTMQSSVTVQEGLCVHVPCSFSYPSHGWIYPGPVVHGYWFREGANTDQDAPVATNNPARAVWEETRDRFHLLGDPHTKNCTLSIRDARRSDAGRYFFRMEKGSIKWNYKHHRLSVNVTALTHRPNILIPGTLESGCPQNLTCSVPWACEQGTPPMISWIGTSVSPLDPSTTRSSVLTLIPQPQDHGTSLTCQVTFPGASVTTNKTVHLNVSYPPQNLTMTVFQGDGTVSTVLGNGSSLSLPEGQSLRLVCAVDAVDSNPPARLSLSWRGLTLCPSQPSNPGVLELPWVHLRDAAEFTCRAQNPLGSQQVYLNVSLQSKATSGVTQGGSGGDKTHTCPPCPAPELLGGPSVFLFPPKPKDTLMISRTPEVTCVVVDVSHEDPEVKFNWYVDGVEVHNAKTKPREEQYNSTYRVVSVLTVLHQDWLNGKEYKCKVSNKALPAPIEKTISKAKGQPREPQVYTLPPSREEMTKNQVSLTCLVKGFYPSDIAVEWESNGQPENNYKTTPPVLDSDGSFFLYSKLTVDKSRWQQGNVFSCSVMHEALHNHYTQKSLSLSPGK

maximum binding nm shift [1]: 0.099 nm
maximum binding nm shift [2]: 0.14 nm
maximum binding nm shift [3]: 0.188 nm
maximum binding nm shift [4]: 0.031 nm
maximum binding nm shift [5]: -0.053 nm
maximum binding nm shift [6]: 0.214 nm
maximum binding nm shift [7]: 0.085 nm
maximum binding nm shift [8]: 0.091 nm
maximum binding nm shift [9]: 0 nm
maximum binding nm shift [10]: -0.064 nm
B1: 3L02 (antibody, V domains shown)
VH: DVQLQESGPGMVKPSQSLSLTCTVTGYSITSGYDWHWIRHFPGNKLEWMGYISYSAGTNYNPSLKSRISITHDTSKNHFFLKLNSVTTEDTATYYCAREGLTAYWYFDVWGTGTTVTVSS
VL: DIVMTQSQKFMSTSVGDRVSVTCKASQTVGTNVAWYQQKPGQSPKPLIYSASYRYSGVPDRFTGSGSGTDFTLTISNVQSEDLAEYFCQQYDSFPLTFGSGTKLEIK
